Measured values: PMC4156536

Molecular target: RyR1 with a His10 tag inserted at position 500 (His^500-RyR1) (rabbit) (UniProt P11716)
Experiment: FRET or BRET

Chain of UniProt P11716 (P11716 whole entry): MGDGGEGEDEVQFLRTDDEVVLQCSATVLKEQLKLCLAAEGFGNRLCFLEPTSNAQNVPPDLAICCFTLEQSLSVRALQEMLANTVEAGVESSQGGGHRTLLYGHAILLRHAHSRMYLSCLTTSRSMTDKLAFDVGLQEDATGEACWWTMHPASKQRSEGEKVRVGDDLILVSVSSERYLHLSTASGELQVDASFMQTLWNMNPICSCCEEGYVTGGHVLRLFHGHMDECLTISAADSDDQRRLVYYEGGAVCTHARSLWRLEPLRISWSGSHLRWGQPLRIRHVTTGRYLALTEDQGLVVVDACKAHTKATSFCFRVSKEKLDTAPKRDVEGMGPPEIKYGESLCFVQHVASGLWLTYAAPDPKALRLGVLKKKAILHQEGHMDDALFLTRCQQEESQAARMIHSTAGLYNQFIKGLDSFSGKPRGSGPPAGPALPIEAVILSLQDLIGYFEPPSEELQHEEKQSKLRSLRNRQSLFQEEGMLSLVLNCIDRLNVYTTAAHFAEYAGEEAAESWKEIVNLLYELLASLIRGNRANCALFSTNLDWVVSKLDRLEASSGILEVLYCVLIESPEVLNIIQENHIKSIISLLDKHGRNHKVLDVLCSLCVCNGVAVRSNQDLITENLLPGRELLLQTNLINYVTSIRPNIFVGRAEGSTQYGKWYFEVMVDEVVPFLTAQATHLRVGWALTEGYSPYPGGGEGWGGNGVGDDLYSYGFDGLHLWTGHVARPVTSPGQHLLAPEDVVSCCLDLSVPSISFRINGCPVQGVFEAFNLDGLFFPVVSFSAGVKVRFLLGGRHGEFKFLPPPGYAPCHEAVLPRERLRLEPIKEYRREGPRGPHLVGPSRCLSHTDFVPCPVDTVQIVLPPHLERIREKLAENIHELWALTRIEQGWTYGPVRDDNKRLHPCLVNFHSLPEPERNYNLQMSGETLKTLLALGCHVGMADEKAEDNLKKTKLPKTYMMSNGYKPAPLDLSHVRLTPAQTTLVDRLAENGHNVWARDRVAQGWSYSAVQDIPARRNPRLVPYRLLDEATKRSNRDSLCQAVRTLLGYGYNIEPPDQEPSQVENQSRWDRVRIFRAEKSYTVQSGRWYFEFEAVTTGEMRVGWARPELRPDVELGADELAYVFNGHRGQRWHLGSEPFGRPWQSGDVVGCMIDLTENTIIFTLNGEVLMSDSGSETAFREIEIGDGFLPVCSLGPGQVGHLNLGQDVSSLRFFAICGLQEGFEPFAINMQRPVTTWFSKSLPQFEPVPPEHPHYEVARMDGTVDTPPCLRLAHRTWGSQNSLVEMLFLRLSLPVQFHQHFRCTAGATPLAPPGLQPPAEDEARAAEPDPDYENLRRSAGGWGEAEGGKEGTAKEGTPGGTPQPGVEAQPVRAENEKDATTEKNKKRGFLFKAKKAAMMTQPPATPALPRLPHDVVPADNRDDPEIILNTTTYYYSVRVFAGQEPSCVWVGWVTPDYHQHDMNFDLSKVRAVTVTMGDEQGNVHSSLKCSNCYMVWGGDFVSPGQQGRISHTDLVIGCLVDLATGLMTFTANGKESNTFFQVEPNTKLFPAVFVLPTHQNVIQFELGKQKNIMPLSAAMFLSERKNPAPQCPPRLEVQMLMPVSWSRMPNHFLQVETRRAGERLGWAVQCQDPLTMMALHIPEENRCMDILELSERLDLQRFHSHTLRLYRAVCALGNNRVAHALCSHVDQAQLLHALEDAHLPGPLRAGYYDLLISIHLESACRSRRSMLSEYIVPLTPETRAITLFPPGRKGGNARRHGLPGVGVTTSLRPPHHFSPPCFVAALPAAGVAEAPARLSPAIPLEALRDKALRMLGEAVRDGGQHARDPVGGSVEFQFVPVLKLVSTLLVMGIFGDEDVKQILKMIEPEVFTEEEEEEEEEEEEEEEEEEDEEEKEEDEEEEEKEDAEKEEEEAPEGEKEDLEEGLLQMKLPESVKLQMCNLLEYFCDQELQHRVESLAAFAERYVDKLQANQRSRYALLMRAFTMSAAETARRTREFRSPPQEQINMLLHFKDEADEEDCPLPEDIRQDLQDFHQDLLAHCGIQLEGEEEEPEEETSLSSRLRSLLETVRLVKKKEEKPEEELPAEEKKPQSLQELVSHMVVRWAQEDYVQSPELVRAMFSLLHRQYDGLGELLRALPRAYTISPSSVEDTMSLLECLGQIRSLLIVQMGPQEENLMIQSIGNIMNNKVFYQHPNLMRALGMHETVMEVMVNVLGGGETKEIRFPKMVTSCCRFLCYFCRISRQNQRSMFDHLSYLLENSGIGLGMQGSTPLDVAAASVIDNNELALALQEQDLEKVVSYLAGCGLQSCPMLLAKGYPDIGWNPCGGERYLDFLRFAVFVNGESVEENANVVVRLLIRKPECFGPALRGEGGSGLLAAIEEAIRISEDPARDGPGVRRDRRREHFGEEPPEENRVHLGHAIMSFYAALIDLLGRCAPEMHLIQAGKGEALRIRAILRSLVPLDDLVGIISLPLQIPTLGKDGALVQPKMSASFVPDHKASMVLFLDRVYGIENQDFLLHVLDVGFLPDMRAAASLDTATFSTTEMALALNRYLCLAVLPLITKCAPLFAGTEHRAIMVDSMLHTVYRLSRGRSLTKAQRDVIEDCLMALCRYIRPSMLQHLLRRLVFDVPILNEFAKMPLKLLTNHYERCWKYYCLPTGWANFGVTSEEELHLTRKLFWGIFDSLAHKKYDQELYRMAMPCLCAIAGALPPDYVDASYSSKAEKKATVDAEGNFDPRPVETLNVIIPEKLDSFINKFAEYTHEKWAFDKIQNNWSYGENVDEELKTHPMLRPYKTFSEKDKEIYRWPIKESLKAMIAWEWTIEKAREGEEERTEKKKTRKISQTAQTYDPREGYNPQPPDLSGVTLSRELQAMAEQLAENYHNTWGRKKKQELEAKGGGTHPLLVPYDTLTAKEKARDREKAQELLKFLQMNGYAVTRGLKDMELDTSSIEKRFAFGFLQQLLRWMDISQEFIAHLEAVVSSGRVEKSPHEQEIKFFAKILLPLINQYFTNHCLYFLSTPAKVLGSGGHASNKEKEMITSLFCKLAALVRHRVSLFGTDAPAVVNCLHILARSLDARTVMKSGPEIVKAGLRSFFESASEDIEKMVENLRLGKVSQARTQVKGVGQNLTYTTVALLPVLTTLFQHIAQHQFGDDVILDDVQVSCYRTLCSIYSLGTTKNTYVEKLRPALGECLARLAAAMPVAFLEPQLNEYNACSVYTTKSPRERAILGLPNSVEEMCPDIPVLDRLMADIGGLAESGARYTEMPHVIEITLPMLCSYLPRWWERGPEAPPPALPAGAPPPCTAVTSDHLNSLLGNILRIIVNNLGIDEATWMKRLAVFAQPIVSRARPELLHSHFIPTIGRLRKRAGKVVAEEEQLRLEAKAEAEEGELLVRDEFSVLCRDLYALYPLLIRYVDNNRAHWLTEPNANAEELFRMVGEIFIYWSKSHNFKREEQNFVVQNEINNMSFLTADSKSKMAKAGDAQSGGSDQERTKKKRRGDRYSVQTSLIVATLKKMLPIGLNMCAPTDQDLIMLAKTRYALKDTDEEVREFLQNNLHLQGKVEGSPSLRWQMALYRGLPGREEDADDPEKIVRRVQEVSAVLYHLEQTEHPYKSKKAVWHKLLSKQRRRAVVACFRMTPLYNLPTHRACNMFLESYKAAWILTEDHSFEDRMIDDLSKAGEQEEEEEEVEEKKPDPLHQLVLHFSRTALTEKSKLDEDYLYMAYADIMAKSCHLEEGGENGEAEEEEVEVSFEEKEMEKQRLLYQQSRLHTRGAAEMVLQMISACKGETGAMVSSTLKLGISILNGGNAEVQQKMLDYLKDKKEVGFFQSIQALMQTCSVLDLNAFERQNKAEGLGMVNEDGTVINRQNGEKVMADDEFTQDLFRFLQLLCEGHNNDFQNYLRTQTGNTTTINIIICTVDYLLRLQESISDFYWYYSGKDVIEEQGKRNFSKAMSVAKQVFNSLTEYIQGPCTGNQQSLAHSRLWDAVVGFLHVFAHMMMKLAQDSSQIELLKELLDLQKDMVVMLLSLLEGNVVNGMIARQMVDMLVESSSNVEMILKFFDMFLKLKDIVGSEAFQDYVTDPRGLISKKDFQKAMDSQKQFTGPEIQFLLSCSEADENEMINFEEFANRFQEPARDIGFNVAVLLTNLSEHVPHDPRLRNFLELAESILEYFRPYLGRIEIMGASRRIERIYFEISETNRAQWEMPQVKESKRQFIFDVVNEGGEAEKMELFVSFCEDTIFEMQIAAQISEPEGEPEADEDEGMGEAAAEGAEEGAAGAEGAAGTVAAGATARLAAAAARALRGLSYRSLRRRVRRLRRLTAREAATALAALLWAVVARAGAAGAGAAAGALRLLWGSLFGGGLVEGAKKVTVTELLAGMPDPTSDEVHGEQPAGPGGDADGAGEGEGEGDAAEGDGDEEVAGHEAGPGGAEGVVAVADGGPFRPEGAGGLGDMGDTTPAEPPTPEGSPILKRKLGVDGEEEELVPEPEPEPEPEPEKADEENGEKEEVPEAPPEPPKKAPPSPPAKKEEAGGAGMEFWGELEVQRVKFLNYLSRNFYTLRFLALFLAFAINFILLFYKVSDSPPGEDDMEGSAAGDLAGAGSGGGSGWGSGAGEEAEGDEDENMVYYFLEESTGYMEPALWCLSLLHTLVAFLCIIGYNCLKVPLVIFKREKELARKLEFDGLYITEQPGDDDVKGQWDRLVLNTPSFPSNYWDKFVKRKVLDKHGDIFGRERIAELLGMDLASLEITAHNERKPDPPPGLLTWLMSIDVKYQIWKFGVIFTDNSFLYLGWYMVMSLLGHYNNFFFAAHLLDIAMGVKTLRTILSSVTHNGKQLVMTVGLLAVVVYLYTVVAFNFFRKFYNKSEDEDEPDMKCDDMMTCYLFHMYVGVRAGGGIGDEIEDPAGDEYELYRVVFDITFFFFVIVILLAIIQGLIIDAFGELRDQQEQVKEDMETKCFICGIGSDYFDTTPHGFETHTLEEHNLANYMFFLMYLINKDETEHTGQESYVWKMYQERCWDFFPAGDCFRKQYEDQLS

FRET efficiency (AF488 on FKBP to Cy3NTA on the His10 tag): 0.18
Substance: FKBP12.6 with AF488 conjugated to amino acid residue 14 (D14-FKBP) (from UniProt P68106 1-108) (natural protein)
